The assay has as its target Human EGFR JM-kinase construct (JM-A and JM-B, residues 645-998) (human). Description: static light scattering.

For the substance “Human EGFR JM-kinase construct (JM-A and JM-B, residues 645-998) (domain or fragment)”, the stoichiometry N was 2.

As a reminder, the stoichiometry N is the number of molecules, sites or subunits per partner or assembly.

Source of the values: article PMC2814540.
